Data reported in the supplement of paper PMC9112550, “Optimization of the antimicrobial peptide Bac7 by deep mutational scanning” (BMC Biology, 2022).

These sequences were tested on Escherichia coli TOP10 (assay: shrunken log2 fold change of peptide-encoding DNA abundance (4.5 h post-induction vs induction); higher = less antimicrobial activity (less host growth inhibition)). Conditions: time post-induction: 4.5 h; library: site-saturation at positions 5, 18, 19, 20.
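Also: peptides expressed intracellularly from a pBAD plasmid library in pooled LB shake-flask culture, induced with 0.3% L-arabinose, DNA abundance read by NGS, three biological replicates, DESeq2 with apeglm shrinkage.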

| Sequence | shrunken log2 fold change |
| --- | --- |
| RRIRPRPPRLPRPRPRPLGDPRP | 0.279 |
| RRIRWRPPRLPRPRPRPMFLPRP | -0.182 |
| RRIRHRPPRLPRPRPRPETWPRP | -0.238 |
| RRIRHRPPRLPRPRPRPKTPPRP | 0.155 |
| RRIRMRPPRLPRPRPRPCFMPRP | -0.136 |
| RRIRSRPPRLPRPRPRPWMVPRP | -0.267 |
| RRIRYRPPRLPRPRPRPMQHPRP | -0.17 |
| RRIRGRPPRLPRPRPRPKQLPRP | -0.00285 |
| RRIRVRPPRLPRPRPRPCETPRP | 0.0572 |
| RRIRMRPPRLPRPRPRPGQSPRP | 1.23 |
| RRIRSRPPRLPRPRPRPVQWPRP | 0.175 |
| RRIRFRPPRLPRPRPRPSAWPRP | 0.534 |
| RRIRCRPPRLPRPRPRPFMGPRP | -0.585 |
| RRIRWRPPRLPRPRPRPCNMPRP | -0.179 |
| RRIRARPPRLPRPRPRPIHIPRP | -0.24 |
| RRIRARPPRLPRPRPRPSQIPRP | 0.0409 |
| RRIRHRPPRLPRPRPRPQRSPRP | 0.0449 |
| RRIRKRPPRLPRPRPRPDYRPRP | -0.157 |
| RRIRRRPPRLPRPRPRPEVGPRP | 0.946 |
| RRIRTRPPRLPRPRPRPECRPRP | 0.569 |
| RRIRTRPPRLPRPRPRPKKAPRP | -0.0102 |
| RRIRNRPPRLPRPRPRPQQHPRP | -0.111 |
| RRIRPRPPRLPRPRPRPNVWPRP | 0.183 |
| RRIRQRPPRLPRPRPRPITLPRP | -0.418 |
| RRIRYRPPRLPRPRPRPRRDPRP | -0.17 |

| Sequence | shrunken log2 fold change |
| --- | --- |
| RRIRIRPPRLPRPRPRPCLKPRP | -0.16 |
| RRIRTRPPRLPRPRPRPFDYPRP | -0.0205 |
| RRIRLRPPRLPRPRPRPCYKPRP | -0.133 |
| RRIRRRPPRLPRPRPRPISIPRP | -0.0402 |
| RRIRFRPPRLPRPRPRPHDEPRP | 0.099 |
| RRIRTRPPRLPRPRPRPKNMPRP | -0.359 |
| RRIRFRPPRLPRPRPRPLHKPRP | -0.179 |
| RRIRIRPPRLPRPRPRPEPHPRP | -0.0648 |
| RRIRYRPPRLPRPRPRPTDNPRP | -1.05 |
| RRIRERPPRLPRPRPRPRQTPRP | 0.253 |
| RRIRSRPPRLPRPRPRPEIQPRP | 0.00278 |
| RRIRCRPPRLPRPRPRPQMYPRP | -0.14 |
| RRIRYRPPRLPRPRPRPLRRPRP | 0.17 |
| RRIRQRPPRLPRPRPRPKCFPRP | -0.25 |
| RRIRARPPRLPRPRPRPGYYPRP | -0.254 |
| RRIRRRPPRLPRPRPRPCTRPRP | 0.0341 |
| RRIRFRPPRLPRPRPRPTFTPRP | -0.157 |
| RRIRVRPPRLPRPRPRPLENPRP | 0.124 |
| RRIRGRPPRLPRPRPRPTFIPRP | -0.0836 |
| RRIRSRPPRLPRPRPRPVSLPRP | -0.122 |
| RRIRPRPPRLPRPRPRPYDRPRP | -0.319 |
| RRIRTRPPRLPRPRPRPNDMPRP | -0.209 |
| RRIRERPPRLPRPRPRPFITPRP | -0.314 |
| RRIRLRPPRLPRPRPRPQSHPRP | -0.349 |
| RRIRPRPPRLPRPRPRPWYAPRP | -0.107 |

| Sequence | shrunken log2 fold change |
| --- | --- |
| RRIRWRPPRLPRPRPRPEAMPRP | 0.142 |
| RRIRARPPRLPRPRPRPHVNPRP | -0.467 |
| RRIRPRPPRLPRPRPRPACIPRP | -0.25 |
| RRIRYRPPRLPRPRPRPYWVPRP | -0.538 |
| RRIRERPPRLPRPRPRPMPHPRP | -0.083 |
| RRIRDRPPRLPRPRPRPQIEPRP | -0.0186 |
| RRIRSRPPRLPRPRPRPKGSPRP | 0.0118 |
| RRIRRRPPRLPRPRPRPQQIPRP | -0.0299 |
| RRIRKRPPRLPRPRPRPDIDPRP | 2.44 |
| RRIRNRPPRLPRPRPRPNWWPRP | -0.0262 |
| RRIRMRPPRLPRPRPRPLTYPRP | -0.0782 |
| RRIRARPPRLPRPRPRPEVWPRP | 1.43 |
| RRIRERPPRLPRPRPRPNRFPRP | 0.0105 |
| RRIRIRPPRLPRPRPRPLCWPRP | -0.0614 |
| RRIRLRPPRLPRPRPRPLAVPRP | 0.139 |
| RRIRDRPPRLPRPRPRPSIYPRP | -0.313 |
| RRIRERPPRLPRPRPRPGSTPRP | -0.401 |
| RRIRSRPPRLPRPRPRPFRAPRP | -0.0568 |
| RRIRLRPPRLPRPRPRPTQMPRP | 0.333 |
| RRIRFRPPRLPRPRPRPVLEPRP | 0.00555 |
| RRIRLRPPRLPRPRPRPLECPRP | 0.184 |
| RRIRPRPPRLPRPRPRPWDEPRP | -0.151 |
| RRIRGRPPRLPRPRPRPTFYPRP | 0.264 |
| RRIRWRPPRLPRPRPRPDWHPRP | -0.0337 |
| RRIRLRPPRLPRPRPRPPDGPRP | 0.0617 |

| Sequence | shrunken log2 fold change |
| --- | --- |
| RRIRYRPPRLPRPRPRPEWKPRP | -0.000687 |
| RRIRVRPPRLPRPRPRPDYCPRP | -0.207 |
| RRIRWRPPRLPRPRPRPHHKPRP | -0.23 |
| RRIRGRPPRLPRPRPRPMFKPRP | 0.0694 |
| RRIRVRPPRLPRPRPRPPNGPRP | 0.0958 |
| RRIRLRPPRLPRPRPRPKACPRP | 0.16 |
| RRIRDRPPRLPRPRPRPPYCPRP | -0.0939 |
| RRIRHRPPRLPRPRPRPQACPRP | -0.208 |
| RRIRKRPPRLPRPRPRPHSWPRP | 0.0385 |
| RRIRNRPPRLPRPRPRPGQIPRP | 0.0192 |
| RRIRTRPPRLPRPRPRPWVPPRP | 0.252 |
| RRIRMRPPRLPRPRPRPESVPRP | 0.958 |
| RRIRNRPPRLPRPRPRPDTFPRP | 0.0183 |
| RRIRPRPPRLPRPRPRPCLHPRP | -0.248 |
| RRIRIRPPRLPRPRPRPKNDPRP | -0.867 |
| RRIRNRPPRLPRPRPRPKYCPRP | -0.225 |
| RRIRTRPPRLPRPRPRPRKYPRP | -0.809 |
| RRIRRRPPRLPRPRPRPRVEPRP | 0.662 |
| RRIRGRPPRLPRPRPRPMMTPRP | 3.31 |
| RRIRLRPPRLPRPRPRPNSNPRP | -0.335 |
| RRIRRRPPRLPRPRPRPSDGPRP | 0.0219 |
| RRIRRRPPRLPRPRPRPTVCPRP | 0.227 |
| RRIRVRPPRLPRPRPRPQYCPRP | -0.095 |
| RRIRHRPPRLPRPRPRPGRAPRP | 0.49 |
| RRIRCRPPRLPRPRPRPRQSPRP | 0.139 |

| Sequence | shrunken log2 fold change |
| --- | --- |
| RRIRGRPPRLPRPRPRPSKNPRP | 0.619 |
| RRIRNRPPRLPRPRPRPMGSPRP | -0.01 |
| RRIRSRPPRLPRPRPRPNHLPRP | -0.814 |
| RRIRERPPRLPRPRPRPWCHPRP | -0.229 |
| RRIRKRPPRLPRPRPRPELIPRP | 0.0174 |
| RRIRERPPRLPRPRPRPDHCPRP | -0.0389 |
| RRIRTRPPRLPRPRPRPHLRPRP | -0.264 |
| RRIRGRPPRLPRPRPRPGVHPRP | 0.597 |
| RRIRSRPPRLPRPRPRPFLSPRP | -0.063 |
| RRIRKRPPRLPRPRPRPHENPRP | -0.00978 |
| RRIRLRPPRLPRPRPRPHFAPRP | -0.0165 |
| RRIRRRPPRLPRPRPRPSYKPRP | -0.563 |
| RRIRRRPPRLPRPRPRPYVRPRP | -0.867 |
| RRIRERPPRLPRPRPRPLGQPRP | 0.0127 |
| RRIRFRPPRLPRPRPRPGVGPRP | 0.358 |
| RRIRIRPPRLPRPRPRPDPKPRP | -0.183 |
| RRIRGRPPRLPRPRPRPSHQPRP | -0.0609 |
| RRIRLRPPRLPRPRPRPNDEPRP | 0.0316 |
| RRIRMRPPRLPRPRPRPYVRPRP | -0.313 |
| RRIRQRPPRLPRPRPRPGTRPRP | 0.111 |
| RRIRRRPPRLPRPRPRPSDPPRP | -0.00173 |
| RRIRIRPPRLPRPRPRPRRNPRP | -0.0717 |
| RRIRSRPPRLPRPRPRPKDPPRP | 0.226 |
| RRIRWRPPRLPRPRPRPTCKPRP | -0.0078 |
| RRIRWRPPRLPRPRPRPNDMPRP | 0.199 |

| Sequence | shrunken log2 fold change |
| --- | --- |
| RRIRDRPPRLPRPRPRPTDNPRP | -0.5 |
| RRIRVRPPRLPRPRPRPFLYPRP | -0.728 |
| RRIRERPPRLPRPRPRPWEKPRP | -0.00277 |
| RRIRWRPPRLPRPRPRPVEVPRP | -0.0825 |
| RRIRQRPPRLPRPRPRPLGNPRP | -0.263 |
| RRIRDRPPRLPRPRPRPYPSPRP | -0.167 |
| RRIRQRPPRLPRPRPRPTDRPRP | 0.0938 |
| RRIRNRPPRLPRPRPRPMWIPRP | -0.148 |
| RRIRSRPPRLPRPRPRPQRHPRP | 0.141 |
| RRIRERPPRLPRPRPRPDDNPRP | 0.0486 |
| RRIRRRPPRLPRPRPRPWMPPRP | -0.217 |
| RRIRHRPPRLPRPRPRPNIWPRP | 0.0229 |
| RRIRTRPPRLPRPRPRPSHYPRP | -1.32 |
| RRIRNRPPRLPRPRPRPIVLPRP | -0.211 |
| RRIRHRPPRLPRPRPRPSDNPRP | 0.129 |
| RRIRVRPPRLPRPRPRPNRIPRP | -0.0663 |
| RRIRYRPPRLPRPRPRPVNEPRP | -0.109 |
| RRIRRRPPRLPRPRPRPCTKPRP | -0.147 |
| RRIRERPPRLPRPRPRPACRPRP | 0.392 |
| RRIRVRPPRLPRPRPRPLERPRP | -0.0607 |
| RRIRVRPPRLPRPRPRPYPFPRP | -0.863 |
| RRIRERPPRLPRPRPRPYSVPRP | -0.114 |
| RRIRYRPPRLPRPRPRPCKIPRP | -0.116 |
| RRIRMRPPRLPRPRPRPCQHPRP | -0.188 |
| RRIRRRPPRLPRPRPRPLKFPRP | -0.149 |
